Data from article PMC7060403 (Journal of molecular biology, 2019).

Target: T1, RavP-C (C-terminal region of the rabies virus phosphoprotein, residues 140-297) (rabies virus, UniProt P22363 140-297)
T1 sequence: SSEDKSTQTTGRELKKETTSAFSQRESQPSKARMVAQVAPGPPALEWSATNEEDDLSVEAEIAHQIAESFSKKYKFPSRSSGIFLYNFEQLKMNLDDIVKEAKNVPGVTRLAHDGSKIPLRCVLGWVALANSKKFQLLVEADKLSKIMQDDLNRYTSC
Test: ITC

B1: LC8 from Drosophila melanogaster (natural protein, UniProt Q24117 1-89, looked up)
chain: MSDRKAVIKNADMSEEMQQDAVDCATQALEKYNIEKDIAAYIKKEFDKKYNPTWHCIVGRNFGSYVTHETRHFIYFYLGQVAILLFKSG
Kd: 4.19 µM
